Test results as given in a protein production outcome set (Wang et al. 2014).

Assay: label from the status in PepcDB records

Sequence	protein production
MRVEVFPVEGLPLIKEGDDLAELISSRVRFEDGDVLVVCSTVISKAEGRIRRLEEFNPSERAKEIAARIGKPAEFVQAVLEESEEVLLDFPFLLVKAKFGNVCVNAGIDASNVEEGSLLLPPLDPDGSAEKLRRRILELTGKRVGVIITDTNGRCFRRGVVGFAIGISGVKAMKDWIGRKDLYGRELEVTVECVADEIAAFANLLMGEGGDGIPAVVVRGLNVAGEGSMEEIYRSEEEDVIRRCLKRCL	not failed
MRVFPVTLGPLQENAYLVETGEGPVLIDPGDEPEKLLALFQTTGLIPLAILLTHAHFDHVGAVAPLVEALDLPVYLHPLDLPLYEGADLAARAWGLAIPKPPLPVRPLEEGMRLFGFQVLHLPGHSPGHVAFYDPEGAQVFSGDLLFRGSVGRYDLPGADPKALFASLKRLLSLPPETRVHPGHGPGTTLGLEARTNPFLTGLEWEA	not failed
MRVFVTGASGWIGSAVVPELIRAGHQVVGLARSDASAEALTAAGAGVVRGTLDDLDVLRRAAADSDGVVHLAFKHDIAFSGDFKGAGEADRRAVEVIGEALAGSDRPFTIASGTPAIPGHVATEHDGHDADRAAAARGDAQHIRAVTAELTVSLSARGVRSSVVRLAPTNHGEGDNGFVPALIGIARGKGVSGYIGDGTNRWSAAHRLDSARLFRLALEKAPAGSTLHAVAEEGLPVRDLAEVVGRQLGLPVVSVPAAEAEAHFGWLAGPLAANRAASSVLTRELLGWEPVQPGLVEDLEQGHYFK	failed
MRVLVTGGAGFIGSHIVEDLLARGLEVAVLDNLATGKRENVPKGVPFFRVDLRDKEGVERAFREFRPTHVSHQAAQASVKVSVEDPVLDFEVNLLGGLNLLEACRQYGVEKLVFASTGGAIYGEVPEGERAEETWPPRPKSPYAASKAAFEHYLSVYGQSYGLKWVSLRYGNVYGPRQDPHGEAGVVAIFAERVLKGLPVTLYARKTPGDEGCVRDYVYVGDVAEAHALALFSLEGIYNVGTGEGHTTREVLMAVAEAAGKAPEVQPAPPRPGDLERSVLSPLKLMAHGWRPKVGFQEGIRLTVDHFRGAV	not failed
MRVVALVPGGIGDQILFFPTLDDLKRYYPNAQLDVVVEPRSKAAYRVSKSVNDILTFDYKDRNSLADWGNLVGTIRDREYDVVITVGQSWLVGLFLWLTGIPTRIGYQGKGRSFLTKTVPFKPSQYAAAVYHDLLAPIGITTPTPELAVNVPKPDIDWANSEQKRLGVNETGYVLIYGGSSWVSQPQALETIYPAENWQEIIQDFRQKQPDLPVVVIQGPDDEQFVRSLRDYSLDIKVTSPDNVGKLTAMIAGANLMLTTDSAPLHLSVAVQTYTIALFGSTDPVKLLPNSDKLLGIKSSTGRVADILPKAVLEKVWGGLEHHHHHH	not failed
MRWGSWLALAGLNAFLSIASGAFAAHALSALGDAHGVGLMEKSARYQMYGAFALVVCAWLAERGVGGRLVAVAGWLHLAGVVLFCGALSAIALLGWPAGPVAPLGGSAMLLGWGVLAWIGLRARRGA	failed
MRWLLLLLLLAACRAQGLPEPYATLERGGKEALRQVALEAQGYAGLLAGWLLVGEEDLPLAERAEYAWRYALFLEEVRAFEPGWEAEAAWRVAAPLLEAAEDARAFSAWARLLPEEEAVQALLRLGQGERLWEALFRGRAYEPLLKALPEGERPDLRAQALYRLGRYEEALPHYRAWAEADPRGYLGLGYALWRLGRREEALQAFARYDHPESRLAQGRLLEGMGRVEEALARYLASTPEGLWRATALLERLGRKEEALGVYLRLAQGESPYADDAALRAYLLAGELGNGEARQEAYARLEGGLGLLVGKRPSPPPQALEAPPAPLTPLVEALVRAGKAAWARGEVRYALWRRPKDWPALVPLLYRLGAYREGIRAAWPTALAYPRAYREWVEGYAGKEGLDPDLLFALLHVESRFDPKAVSPTGALGLAQFLRSTWADVARMLGEPPADPFDPESAIRYAARYLRWLMERCAAFSGVERLACAVTAYNGGIGYTLRGIAREGGLYAFLRFQERDEPREYLAKVLSAYAAYKAIP	failed
MRWRADFLSAWAEALLRKAGADEPSAKAVAWALVEADLRGVGSHGLLRLPVYVRRLEAGLVNPSPTLPLEERGPVALLDGEHGFGPRVALKAVEAAQSLARRHGLGAVGVRRSTHFGMAGLYAEKLAREGFVAWVTTNAEPDVVPFGGREKALGTNPLAFAAPAPQGILVADLATSESAMGKVFLAREKGERIPPSWGVDREGSPTDDPHRVYALRPLGGPKGYALALLVEVLSGVLTGAGVAHGIGRMYDEWDRPQDVGHFLLALDPGRFVGKEAFLERMGALWQALKATPPAPGHEEVFLPGELEARRRERALAEGMALPERVVAELKALGERYGVPWRDDA	not failed
